In US20110166036A1:

Biological target: recombinant human sortilin (human) (UniProt Q99523)
Assay: SPR (BIAcore), sortilin immobilized on CM5 chip, ApoB 10, 20, 50 nM

Chain of recombinant human sortilin (human) (Q99523 78-755 limits assumed, form in doubt): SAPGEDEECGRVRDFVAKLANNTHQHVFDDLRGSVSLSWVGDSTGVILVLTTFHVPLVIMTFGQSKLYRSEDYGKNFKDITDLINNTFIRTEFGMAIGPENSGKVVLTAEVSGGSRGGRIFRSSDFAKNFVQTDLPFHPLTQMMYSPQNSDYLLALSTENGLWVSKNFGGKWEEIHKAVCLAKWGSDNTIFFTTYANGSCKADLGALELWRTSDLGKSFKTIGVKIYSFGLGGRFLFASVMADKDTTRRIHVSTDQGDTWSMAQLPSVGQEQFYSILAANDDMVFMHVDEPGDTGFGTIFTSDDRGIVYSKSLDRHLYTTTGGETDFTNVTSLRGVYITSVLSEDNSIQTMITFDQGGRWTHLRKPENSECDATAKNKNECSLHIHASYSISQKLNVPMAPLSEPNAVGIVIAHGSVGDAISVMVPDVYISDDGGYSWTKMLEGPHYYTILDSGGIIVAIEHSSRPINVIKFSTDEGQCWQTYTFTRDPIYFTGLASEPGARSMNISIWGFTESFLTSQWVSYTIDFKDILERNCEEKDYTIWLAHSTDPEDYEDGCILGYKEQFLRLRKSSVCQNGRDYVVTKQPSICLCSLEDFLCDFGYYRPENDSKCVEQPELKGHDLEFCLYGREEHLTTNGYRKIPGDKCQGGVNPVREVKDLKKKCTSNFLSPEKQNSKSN

Kd: 0.4 nM
Substance: ApoB (ligand)
